Assay results as given in paper PMC2951365 (PLoS ONE, 2010).

Target: T1, ubiquitin (Ub) (UniProt P0CG48 1-76)
T1 construct: ubiquitin, the mature 76-residue product of the polyubiquitin precursor; Used 15N-labelled or unlabelled; also called monoUb; 15N-labeled Ub; source: E. coli (pET-3a-Ub), purified (acetic acid denaturation, SP XL column, Superdex-75)
Assay: NMR titration; 15N-Ub (~0.2 mM) titrated with increasing amount of GB1-tagged UIM peptides; 1H-15N HSQC; 20 mM phosphate, 100 mM NaCl, pH 6.5, 25°C; apparent KD from I13, K48 and L71 of Ub; for AT3-UIM12 a simplified 1:2 fit with the two UIM motifs binding Ub equally
Details: both partners purified

B1: GB1-fused AT3-UIM3 (residues 335-354) (domain or fragment)
chain: SEEDMLQAAVTMSLETVRND
modifications: GB1 carrier and C-terminal His6 left out. The template's polyQ length is not printed. The printed limits are applied to the 361-aa UIM3-containing form, where they span the whole UIM3 and correspond …
**Q.** Which Kd does the source give for B1 here?
**A.** > 3000 µM
